The values that follow come from patent publication US20260116960A1 (SHANGHAI HONGCHENG BIOPHARMACEUTICAL, published 2026).

The target of assay [1] is T1, hCTLA4-mFc (DIMA BIOTECH, Catalog No. PME100017) (human, UniProt P16410 36-161, limits assumed).
T1 construct: Bought protein; also called human CTLA-4 mouse Fc fusion; not shown: mouse Fc (mFc)
In words: flow cytometry: antibody titrated on 293T-hPD-1 cells, then mixture of biotin-hVEGF165 and hCTLA4-mFc; AF647 anti-mIgG signal; CTLA-4 signal after binding to cell surface PD-1. The protocol:
200 μL/well of the cells were added to a 96-well U-bottom plate. After centrifugation at 300 g for 5 minutes, the supernatant was discarded and 100 μL of antibody solution serially diluted with FACS buffer was added to each well in triplicate (with starting concentration of 200 nM, 3-fold serial dilution, and the same volume of FACS buffer was used as a negative control). Mixed well and incubated at 4° C. for 60 min. After washing the plate three times with FACS buffer, a mixture consisting of 1 μg/mL Biotin-hVEGF165 and 1 μg/mL hCTLA4-mFc (DIMA BIOTECH, Catalog No.: PME100017) in a 1:1 volume ratio was added to each well at 100 μL/well to detect the simultaneously binding activity of the trispecific antibodies to CTLA-4 and VEGF after binding to cell surface PD-1. […] After washing the plate three times with FACS buffer, 100 μL/well of PBS solution was added to resuspend the cells, and the fluorescence signal was detected on a flow cytometer (BECKMAN COULTER cytoFLEX). The binding activity was fitted using a four-parameter model, and the EC₅₀ value of each antibody was calculated.

The target of assay [2] is T2, human CTLA-4 on the cell surface (human, UniProt P16410 36-223).
T2 construct: whole, on cells; also called CHO-hCTLA-4 cells; CHOK1-hCTLA4 cells
The assay is described as follows: flow cytometry competition, CHO-hCTLA-4 cells, biotin-human CD80. The protocol: CHO-hCTLA-4 cells were obtained by trypsin digestion, washed twice with PBS containing 2% FBS (FACS buffer), and resuspended in FACS buffer. 200 μL of the cells were added to a 96-well U-bottom plate, approximately 2×10⁵ cells/well. After centrifugation at 300 g for 5 minutes, the supernatant was discarded. […] After washing three times with FACS buffer, 100 μL/well of 1:800 diluted PE Streptavidin was added and incubated at 4° C. for 50 min. After washing three times with FACS buffer, 150 μL/well of PBS was added to resuspend the cells, and the fluorescence signal was detected on a flow cytometer (BECKMAN COULTER cytoFLEX). The four-parameter model was used to fit the binding activity and the IC₅₀ value of the blocking activity of each antibody was calculated.
For orientation: In flow cytometry, cells or beads pass a laser one at a time.

Assay [3] addresses T3, human VEGF165-his protein (Acro, Catalog No. VE5-H5248) (human, UniProt P15692-4 27-191).
T3 construct: Bought protein; also called hVEGF165-His; VEGFA; not shown: his tag
The assay is described as follows: competitive ELISA, VEGF165-His coated, biotin-human KDR. For orientation: In an ELISA, binding on a coated surface is turned into a signal by an enzyme label.

Assay [4] concerns the target T4, human PD-1 on the cell surface (human, UniProt Q15116 25-288).
T4 construct: whole, on cells; also called cell surface PD-1
In words: flow cytometry, 293T-hPD-1 cells, batch FACS#2. As to the method: After centrifugation at 300 g for 5 minutes, the supernatant was discarded. The antibodies were serially diluted 3-fold with FACS buffer to obtain two gradient series solution FACS #1 and FACS #2, with the starting concentration of 200 nM (Table 5, FACS #1) or 100 nM (Table 5, FACS #2, FIG. 2), respectively. Then 100 μL/well was added to a 96-well plate in triplicate, mixed, and incubated at 4° C. for 60 min. The plate was centrifuged and washed three times with FACS buffer. 100 μL/well of 1:800 diluted AF647-anti-hIgG(H+L) (Jackson, Catalog No.: 109-605-003) was added and incubated at 4° C. for 50 minutes. After washing the plate three times with FACS buffer, 100 μL/well of FACS buffer was added to resuspend the cells, and the fluorescence signal was detected on a flow cytometer (BECKMAN COULTER cytoFLEX). The binding activity was fitted using a four-parameter model to calculate the EC₅₀ value of each antibody binding to PD-1.

T4 sequence (Q15116 25-288): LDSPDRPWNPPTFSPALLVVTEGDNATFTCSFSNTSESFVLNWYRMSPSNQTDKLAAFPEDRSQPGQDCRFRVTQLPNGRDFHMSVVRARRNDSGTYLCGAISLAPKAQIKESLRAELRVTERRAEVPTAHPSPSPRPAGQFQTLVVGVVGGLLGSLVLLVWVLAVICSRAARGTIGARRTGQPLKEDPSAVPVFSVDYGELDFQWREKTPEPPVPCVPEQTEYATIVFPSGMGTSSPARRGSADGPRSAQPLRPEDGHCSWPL
T2 sequence (P16410 36-223): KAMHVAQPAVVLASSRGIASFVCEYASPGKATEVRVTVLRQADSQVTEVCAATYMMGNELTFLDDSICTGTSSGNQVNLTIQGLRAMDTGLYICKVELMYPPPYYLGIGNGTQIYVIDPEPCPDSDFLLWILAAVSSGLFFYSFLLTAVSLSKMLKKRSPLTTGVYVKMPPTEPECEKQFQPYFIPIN
T3 sequence (P15692 other isoform, or with tags, fused parts or gaps limits assumed): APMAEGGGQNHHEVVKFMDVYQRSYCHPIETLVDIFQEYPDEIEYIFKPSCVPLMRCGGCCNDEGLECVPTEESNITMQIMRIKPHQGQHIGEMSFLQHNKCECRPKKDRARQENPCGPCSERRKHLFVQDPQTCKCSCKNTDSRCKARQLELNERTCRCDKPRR
T1 sequence (P16410 36-161 limits assumed): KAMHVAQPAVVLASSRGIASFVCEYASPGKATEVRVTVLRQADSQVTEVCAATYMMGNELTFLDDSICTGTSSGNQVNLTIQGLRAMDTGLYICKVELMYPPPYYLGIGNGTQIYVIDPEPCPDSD

B1: HC010-F10 (trispecific antibody, human IgG4 S228P, kappa)
heavy: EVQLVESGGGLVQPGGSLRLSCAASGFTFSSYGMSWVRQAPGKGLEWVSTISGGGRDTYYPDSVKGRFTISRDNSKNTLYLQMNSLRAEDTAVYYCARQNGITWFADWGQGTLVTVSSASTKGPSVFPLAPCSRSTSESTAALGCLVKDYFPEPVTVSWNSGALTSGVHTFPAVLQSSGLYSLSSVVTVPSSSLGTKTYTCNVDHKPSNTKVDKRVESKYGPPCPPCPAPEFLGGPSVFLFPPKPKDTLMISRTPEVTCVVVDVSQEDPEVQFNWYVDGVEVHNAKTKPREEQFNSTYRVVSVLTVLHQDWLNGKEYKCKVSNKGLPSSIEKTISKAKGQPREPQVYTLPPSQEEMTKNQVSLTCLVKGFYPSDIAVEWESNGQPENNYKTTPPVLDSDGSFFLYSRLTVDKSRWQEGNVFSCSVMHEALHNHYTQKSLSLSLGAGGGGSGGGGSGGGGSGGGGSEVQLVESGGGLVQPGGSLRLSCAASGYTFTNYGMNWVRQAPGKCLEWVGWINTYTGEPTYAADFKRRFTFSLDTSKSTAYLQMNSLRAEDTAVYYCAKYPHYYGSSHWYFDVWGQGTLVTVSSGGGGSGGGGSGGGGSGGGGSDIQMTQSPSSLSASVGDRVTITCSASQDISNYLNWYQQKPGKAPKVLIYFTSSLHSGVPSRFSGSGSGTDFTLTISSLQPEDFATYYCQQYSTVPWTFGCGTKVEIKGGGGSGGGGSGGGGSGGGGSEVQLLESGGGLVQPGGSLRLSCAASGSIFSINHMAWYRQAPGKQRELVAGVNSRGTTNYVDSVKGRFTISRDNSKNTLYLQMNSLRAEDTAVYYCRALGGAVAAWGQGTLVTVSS
light: DIQMTQSPSSLSASVGDRVTITCRASESVDNYGISFMNWYQQKPGKAPKLLIYAASNQGSGVPSRFSGSGSGTDFTLTISSLQPEDFATYYCQQSKEVPWTFGGGTKVEIKRTVAAPSVFIFPPSDEQLKSGTASVVCLLNNFYPREAKVQWKVDNALQSGNSQESVTEQDSKDSTYSLSSTLTLSKADYEKHKVYACEVTHQGLSSPVTKSFNRGEC
notes: light: CQ1-3/1-11 VL-kappa; also called H010-F10
Broadly, the EC50 is the concentration at which the effect is half-maximal. As usually defined, the IC50 is the concentration that gives 50% inhibition. B1: the values for the EC50 in assay [1] and in assay [4] were 3.32 nM and 2.37 nM, respectively. In addition, the half-inhibitory concentration (IC50) is 22.6 nM in assay [2] and 6.76 nM in assay [3].
